Changes are numbered by the printed parent chain. In names and notes the source's numbering stands. Blank lines part the entries; values can stand above or below the binder they belong to.
Legend:
[1] = molecular target: T1, FcRn (human, UniProt P55899); experiment: Bio-Layer Interferometry (determined as described in Example 7)
T1 construct: recombinant; also called human FcRn; gene FCGRT (so in the source)

[2] = molecular target: T2, moFcRn (mouse, UniProt Q61559); experiment: as above
T2 construct: recombinant; also called mouse FcRn; gene FCGRT (so in the source)
T2 sequence (receptor, looked up): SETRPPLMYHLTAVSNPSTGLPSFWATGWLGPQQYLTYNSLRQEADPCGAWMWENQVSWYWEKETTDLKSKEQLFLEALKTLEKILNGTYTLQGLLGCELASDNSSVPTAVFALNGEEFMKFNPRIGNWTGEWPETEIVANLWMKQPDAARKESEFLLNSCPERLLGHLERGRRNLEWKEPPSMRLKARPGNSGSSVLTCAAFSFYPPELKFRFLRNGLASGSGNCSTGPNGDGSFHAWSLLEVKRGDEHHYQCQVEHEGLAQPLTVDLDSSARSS
T2 sequence (looked up): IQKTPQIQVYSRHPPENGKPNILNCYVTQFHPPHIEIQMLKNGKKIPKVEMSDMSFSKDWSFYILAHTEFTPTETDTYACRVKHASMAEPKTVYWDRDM

[3] = molecular target: T3, FcgRIIA (R167) (human, UniProt P12318); experiment: as above
T3 construct: recombinant; also called CD32A; hFcγRIIa167R
T3 sequence (receptor, looked up): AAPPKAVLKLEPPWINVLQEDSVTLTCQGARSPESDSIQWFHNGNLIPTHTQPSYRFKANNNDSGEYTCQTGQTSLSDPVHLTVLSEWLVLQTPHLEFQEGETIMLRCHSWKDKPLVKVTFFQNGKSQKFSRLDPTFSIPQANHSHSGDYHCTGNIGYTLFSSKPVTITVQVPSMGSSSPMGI

[4] = molecular target: T4, His-tagged FcγRIIIa (V158) (human, UniProt P08637 17-208); experiment: as above
T4 construct: not shown: His tag

[5] = molecular target: T5, FcgRIIB (human, UniProt P31994); experiment: as above
T5 construct: recombinant; also called CD32B; hFcγRIIb
T5 sequence (receptor, looked up): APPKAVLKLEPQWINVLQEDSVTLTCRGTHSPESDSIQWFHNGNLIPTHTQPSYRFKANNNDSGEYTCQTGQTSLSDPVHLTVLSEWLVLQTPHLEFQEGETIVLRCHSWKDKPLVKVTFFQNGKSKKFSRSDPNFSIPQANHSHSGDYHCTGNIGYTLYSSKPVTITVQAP

[6] = molecular target: T6, FcgRIIIA (F158) (human, UniProt P08637); experiment: as above
T6 construct: recombinant; also called CD16A; hFcγRIIIa158F

[7] = molecular target: T7, FcgRIIA (H167) (human, UniProt P12318); experiment: as above
T7 construct: recombinant; also called CD32A; hFcγRIIa167H
T7 sequence (receptor, looked up): T3 sequence (receptor, looked up) with R132H

[8] = molecular target: T8, His-tagged human HER3 (human, UniProt P21860 20-643); experiment: Bio-Layer Interferometry (Octet QK384); antibody on anti-Human IgG Capture tips, HIS-tagged human HER3 at 30.3, 60.5, 121 and 242 nM
T8 construct: Antigen of the BLI experiments and of the HER2-Fc dimerisation ELISA; also called HER3 His; not shown: His tag

[9] = molecular target: T9, moFcgRIV; experiment: Bio-Layer Interferometry (determined as described in Example 7)
T9 construct: also called CD16-2; mFcγRIV
T9 chain: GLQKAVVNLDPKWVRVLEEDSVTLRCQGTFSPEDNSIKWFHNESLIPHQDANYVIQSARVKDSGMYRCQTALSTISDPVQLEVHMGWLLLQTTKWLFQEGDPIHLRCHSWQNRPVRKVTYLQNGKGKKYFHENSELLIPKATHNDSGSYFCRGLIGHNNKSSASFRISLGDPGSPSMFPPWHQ

[10] = molecular target: T8, His-tagged human HER3; experiment: BLI (Octet QK384), antibody on anti-human IgG capture tips, His-tagged human HER3 in solution, global one-site fit
Protocol: The anti-HER3 antibody clones in IgG1 format were analysed for binding affinity to human HER3. Bio-Layer Interferometry (BLI) experiments were performed using the Octet QK384 system (ForteBio). anti-Human IgG Capture (AHC) Octet sensor tips (Pall ForteBio, USA) were used to anti-HER3 antibodies (25 nM). All measurements were performed at 25° C. with agitation at 1000 rpm. […] Sensograms were referenced for buffer effects and then fitted using the Octet QK384 user software (Pall ForteBio, USA). Kinetic responses were subjected to a global fitting using a one site binding model to obtain values for association (Kₒₙ), dissociation (Koff) rate constants and the equilibrium dissociation constant (KD). Only curves that could be reliably fitted with the software (R²>0.90) were included in the analysis.

[11] = molecular target: T4, His-tagged FcγRIIIa (V158); experiment: Bio-Layer Interferometry; His-tagged FcγRIIIa (V158) on anti-Penta-HIS tips, antibody in solution
Protocol: All measurements were performed at 25° C. with agitation at 1000 rpm. […] Sensograms were referenced for buffer effects and then fitted using the Octet QK384 user software (Pall ForteBio, USA). Kinetic responses were subjected to a global fitting using a one site binding model to obtain values for association (Kₒₙ), dissociation (Koff) rate constants and the equilibrium dissociation constant (KD). Only curves that could be reliably fitted with the software (R²>0.90) were included in the analysis.
BLI was performed as described above.

[12] = molecular target: T10, human HER3 expressed on cells (HEK293 HER3 O/E cells) (human, UniProt P21860 20-1342); experiment: flow cytometry, HEK293 and HEK293 cells overexpressing human HER3, 20 ug/ml antibody, FITC anti-Fc secondary
T10 construct: Also used here for HER3 on U2OS cells of the PathHunter kit and on cancer cell lines; also called HEK293 cells transfected with vector encoding human HER3; human HER3-expressing cells
Protocol: The cells were washed thrice with FACS buffer (PBS with 5 mM EDTA and 0.5% BSA) and resuspended in FITC-conjugated anti-FC antibody (Invitrogen, USA) for 40 min at 2-8° C. Cells were washed again and resuspended in 200 μL of FACS flow buffer (PBS with 5 mM EDTA) for flow cytometric analysis using MACSQuant 10 (Miltenyi Biotec, Germany). After acquisition, all raw data were analyzed using Flowlogic software. Cells were gated using forward and side scatter profile percentage of positive cells was determined for native and overexpressing cell populations.

[13] = molecular target: T8, His-tagged human HER3; experiment: plate ELISA dimerisation assay; HER2-Fc coated, constant HER3 His and NRG, antibody varied; blocked partner HER2-Fc
Protocol: Plate-based ELISA dimerisation assays were carried out according to standard protocols. Plates were coated with 1 μg/ml HER2-Fc protein. […] Plates were then washed and incubated for 1 hour with secondary anti-HIS HRP antibody. […] The absorbance was read at 450 nm.

Kd [1]: 54.6 nM
Kd [2]: 13.7 nM
B1: 10D1F hIgG1 N297Q (antibody)
heavy chain: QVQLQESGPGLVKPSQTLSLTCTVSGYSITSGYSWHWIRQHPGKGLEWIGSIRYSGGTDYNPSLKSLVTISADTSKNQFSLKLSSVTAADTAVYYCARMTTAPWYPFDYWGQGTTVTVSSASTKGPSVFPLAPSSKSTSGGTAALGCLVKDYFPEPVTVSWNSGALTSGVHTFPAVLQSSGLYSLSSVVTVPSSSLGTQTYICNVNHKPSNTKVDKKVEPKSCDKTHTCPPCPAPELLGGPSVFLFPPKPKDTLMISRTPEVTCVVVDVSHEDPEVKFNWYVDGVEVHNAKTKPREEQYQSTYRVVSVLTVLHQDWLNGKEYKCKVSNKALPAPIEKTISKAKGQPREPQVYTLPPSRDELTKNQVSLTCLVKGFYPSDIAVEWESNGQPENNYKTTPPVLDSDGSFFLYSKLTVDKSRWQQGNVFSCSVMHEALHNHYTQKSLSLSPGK
light chain: DIQMTQSPSSVSASVGDRVTITCKASQIVGSNVAWYQQKPGKAPEPLIYSASYLYSGVPSRFSGSGSGTDFTLTISSLQPEDFATYYCQQYSSHPLTFGQGTKLEIKRTVAAPSVFIFPPSDEQLKSGTASVVCLLNNFYPREAKVQWKVDNALQSGNSQESVTEQDSKDSTYSLSSTLTLSKADYEKHKVYACEVTHQGLSSPVTKSFNRGEC

Kd [3]: 400 nM
Kd [4]: 82.1 nM
Kd [5]: 580 nM
Kd [6]: 162 nM
Kd [7]: 561 nM
Kd [1]: 37.4 nM
Kd [8]: 0.0222 nM
koff [8]: 4.96e-06 s⁻¹
kon [8]: 223000 M⁻¹ s⁻¹
Kd [9]: 55.4 nM
Kd [2]: 15.2 nM
B2: 10D1F.FcB (antibody, human IgG1, kappa)
heavy: QVQLQESGPGLVKPSQTLSLTCTVSGYSITSGYSWHWIRQHPGKGLEWIGSIRYSGGTDYNPSLKSLVTISADTSKNQFSLKLSSVTAADTAVYYCARMTTAPWYPFDYWGQGTTVTVSSASTKGPSVFPLAPSSKSTSGGTAALGCLVKDYFPEPVTVSWNSGALTSGVHTFPAVLQSSGLYSLSSVVTVPSSSLGTQTYICNVNHKPSNTKVDKKVEPKSCDKTHTCPPCPAPELLAGPDVFCFPPKPKDTLMISRTPEVTCVVVDVSHEDPEVKFNWYVDGVEVHNAKTKPREEQYNSTYRVVSVLTVLHQDWLNGKEYKCKVSNKALPLPEECTISKAKGQPREPQVYTLPPSRDELTKNQVSLTCLVKGFYPSDIAVEWESNGQPENNYKTTPPVLDSDGSFFLYSKLTVDKSRWQQGNVFSCSVMHEALHNHYTQKSLSLSPGK
light: B1 light chain
notes: also called 10D1F.B

Kd [10]: 50.3 nM
B3: anti-HER3 clone 4-35-B4 IgG1 (antibody, V domains shown)
VH: EVQLQQSGAELVKPGASVKLSCTASGFNIKDTYIHWVKQRPDQGLEWIGKIIDPANGNTNYDPKFQGKATITADTSSNTAYLQLSSLSSEDTAVYFCARGLHWGQGTTLTVSS
VL: DIVLTQSPASLAVSLGQRATISCRASKSVSTSGYSYMHWYQQKPGQPPKLLIYLASNLESGVPARFSGSGSGTDFTLNIHPVEEEDAATYYCQHSRELPYTFGGGTKLEIKR
notes: Human-mouse chimeric IgG1/kappa

Kd [11]: 58 nM
koff [11]: 0.009 s⁻¹
kon [11]: 160000 M⁻¹ s⁻¹
B4: 10D1 GASD variant (antibody, human IgG1, kappa)
heavy: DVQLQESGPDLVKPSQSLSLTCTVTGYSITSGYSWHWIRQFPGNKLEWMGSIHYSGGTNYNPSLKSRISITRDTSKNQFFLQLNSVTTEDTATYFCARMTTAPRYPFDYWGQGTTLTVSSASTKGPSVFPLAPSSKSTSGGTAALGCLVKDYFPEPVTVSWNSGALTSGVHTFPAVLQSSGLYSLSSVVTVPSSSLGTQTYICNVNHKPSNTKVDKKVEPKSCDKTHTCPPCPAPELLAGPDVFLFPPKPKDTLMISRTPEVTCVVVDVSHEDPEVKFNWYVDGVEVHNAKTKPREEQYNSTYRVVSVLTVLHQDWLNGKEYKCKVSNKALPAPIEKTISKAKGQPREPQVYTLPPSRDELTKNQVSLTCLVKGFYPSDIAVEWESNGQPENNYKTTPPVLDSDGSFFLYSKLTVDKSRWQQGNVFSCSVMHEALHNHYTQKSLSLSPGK
light: DIVMTQSQKFMSTSVGDRVSVTCKASQIVGSNVAWYQQKPGQSPKPLIYSASYRYSGVPDRFTASGSGTDFTLTITNVQSEDLAEYFCQQYSSHPLTFGAGTKLELKRTVAAPSVFIFPPSDEQLKSGTASVVCLLNNFYPREAKVQWKVDNALQSGNSQESVTEQDSKDSTYSLSSTLTLSKADYEKHKVYACEVTHQGLSSPVTKSFNRGEC
notes: also called Fc-modified anti-HER3 antibody clone 10D1 comprising GASD substitutions in CH2 region

binding result [12]: binds
B5: anti-HER3 clone 10A6 IgG1 (antibody, V domains shown)
VH: DVQLQESGPGLVKPSQSLSLTCSVTGNFITSGYFWNWIRQFPGNKLEWMGFISYDGSNNYKPSLKNRISITRDTSKNQFFLKLNSVTTEDTATYYCARENYGFGFDYWGQGTTLTVSS
VL: DIVLTQSPSSLPVSIGEKVTMSCKSSQSLLYSDNQKNYLAWYQQKPGQSPKLLIYWASTWKSGVPDRFTGSGSGTDFTLTISSVKAEDLAVYYCQQYFTFPWTFGGGTKLEIKR
notes: as for B3

IC50 [13]: 80.2 nM
B6: M-05-74 (antibody, V domains shown)
VH: QVQLQQSGAELAKPGASVKMSCKTSGYTLTDYWIHWVKQRPGQGLEWIGYINPYTGYTESNQKFKDKATLTADKSSNTAYIQLSSLTSEDSAVYYCARPYYYGDYWGQGTTLTVSS
VL: QIVLTQSPAIMSASPGERVTITCSASSSVSYMHWFQQKPGTSPKLLIYSTSNLASGVPARFSGSGSGTSYSLTISRMEAEDAATYYCQQRSSYPFTFGSGTKLEIK

— patent US20250122303A1 (HUMMINGBIRD BIOSCIENCE PTE, published 2025)
